The record followed here is publication PMC5076530.

The target in test [1] is human insulin-like growth factor type I receptor (human). The test is described as follows: radioligand binding; competition with human 125I-IGF-I on human IGF-1R in membranes of mouse embryonic fibroblasts (IGF-1R knock-out, transfected with human IGF-1R); non-linear regression, one-site fit; Kd of 125I-IGF-I set to 0.2 nM.
The target of test [2] is human insulin receptor isoform A (human). The test can be described thus: radioligand binding; competition with human 125I-insulin on IR-A in membranes of human IM-9 lymphocytes; non-linear regression, one-site fit, depletion of free ligand taken into account; Kd of 125I-insulin set to 0.3 nM.
Test [3] concerns the target human insulin receptor isoform B (human). The test can be described thus: radioligand binding; human IR-B in membranes of mouse embryonic fibroblasts (IGF-I receptor knock-out, solely expressing human IR-B); non-linear regression, one-site fit, depletion of free ligand taken into account.

Take “IGF-II (recombinant, with an additional glycine at the N terminus) (ligand)”: the Kd – broadly, the concentration at which binding is half-saturated – in test [1] came out at 2.29 nM; in test [2], 3.03 nM; in test [3], 43.7 nM.

With [N29,R34_GS,S39_PQ]IGF-II (ligand), the equilibrium dissociation constant (Kd) worked out at 3.19 nM in test [1] and 19.9 nM in test [2].

For [N29,S39_PQ]IGF-II (ligand), the dissociation constant Kd in test [1] amounted to 1.33 nM; in test [2], 16.8 nM.

Turning to [N29]IGF-II (ligand), the Kd was determined as 4.57 nM in test [1], 10.3 nM in test [2] and 108 nM in test [3].

With [R34_GS,S39_PQ]IGF-II (ligand), the Kd in test [1] was determined as 5.68 nM; in test [2], 23.4 nM.

For the substance [R34_GS]IGF-II (ligand), the Kd in test [1] was found to be 4.13 nM; in test [2] it was 15.4 nM.

Regarding [S39_PQ]IGF-II (ligand), the dissociation constant Kd in test [1] was 5 nM; in test [2], 38 nM.
